# Test results as given in US20240279318A1 (NANJING LEGEND BIOTECH, published 2024).
# Residue numbers refer to the chain shown, from its start.
# B1: 40-AS170036 VL1VH1-56Y98F108A (scFv)
# scFv: QSALTQPRSVSGSPGQSVTISCAGTSSDVGSENYVSWYQQHPGKAPKLMIYQVNKRASGVPDRFSGSKSGNTASLTISGLQAEDEADYYCASYRSSDFNIVFGGGTKLTVLGGGGSGGGGSGGGGSEVQLVESGGGLVQPGGSLRLSCAASGFTFSSYAMSWVRQAPGKGLEWVSTINSGTYSPYYADSVKGRFTISRDNSKNTLYLQMNSLRAEDTAVYYCAKNFFDGSWFLAPPAMDYWGQGTLVTVSSHHHHHH
# notes: Crude scFv mutein of AS170036 VL1VH1
# B2: 70-AS170036 VL1VH1-57K98I108A (scFv)
# scFv: B1 scFv with F98I, Y182G, S183K
# notes: as for B1
# B3: 42-AS170036 VL1VH1-56Y98F108S (scFv)
# scFv: B1 scFv with A234S
# notes: as for B1
# B4: 67-AS170036 VL1VH1-57K98F108A (scFv)
# scFv: B1 scFv with Y182G, S183K
# notes: as for B1
# B5: 75-AS170036 VL1VH1-57K98Q108S (scFv)
# scFv: B1 scFv with F98Q, Y182G, S183K, A234S
# notes: as for B1
# B6: 43-AS170036 VL1VH1-56Y98I108A (scFv)
# scFv: B1 scFv with F98I
# notes: as for B1
# B7: 48-AS170036 VL1VH1-56Y98Q108S (scFv)
# scFv: B1 scFv with F98Q, A234S
# notes: as for B1
# B8: 82-AS170036 VL1VH1-57M98Q108A (scFv)
# scFv: B1 scFv with F98Q, Y182G, S183M
# notes: as for B1
# B9: 45-AS170036 VL1VH1-56Y98I108S (scFv)
# scFv: B1 scFv with F98I, A234S
# notes: as for B1
# B10: 49-AS170036 VL1VH1-56N98F108A (scFv)
# scFv: B1 scFv with Y182N
# notes: as for B1
# B11: AS170036 VL1VH1-VLH98F (scFv)
# scFv: B1 scFv with Y182G, A234G
# B12: AS170036 VL1VH1-VLH98Q (scFv)
# scFv: B1 scFv with F98Q, Y182G, A234G
# B13: AS170036 VL1VH1-VLH98I (scFv)
# scFv: B1 scFv with F98I, Y182G, A234G
# Biological target: T1, AFP158/HLA-A*02:01 complex (human)
# T1 construct: flowed over the chip as analyte; also called AFP158 peptide/HLA-A*02:01 complex
# Test: SPR (BIAcore T200), crude scFv captured, complex flowed over
# Procedure: The experiment was carried out as follows. The crude scFv protein were captured onto the sensorchip. Different concentrations (320, 160, 40 nM) of AFP158/HLA-A*02:01 complex flowed over the sensorchip surface, and were allowed to bind the antibody fragment for 100 s followed by injection of the running buffer to allow dissociation of the complex. On-rate (kd) and off-rate (kd) were calculated based on association and dissociation curve, and were used to estimate the equilibrium dissociation constant (KD).
# The 84 muteins were then tested for their selectivity. The 12 recombinant AFP158 homologous peptides/HLA-A*02:01 complex were mixed in three groups (group 1: ZNF566 and ARNTL, group 2: CDC14A, PTP4A1, BRCA2 and RCL1, group 3: OR1I1, OR51B6, OR6C1, ATG9A, RP1 and NR2E1). The binding of the 84 antibodies to these complexes were then measured by method described above.
row,SPR binding level [RU],Binder
1,587,B1
2,807,B2
3,682,B3
4,686,B4
5,819,B5
6,664,B6
7,817,B7
8,662,B8
9,689,B9
10,604,B10

# Biological target: OR1I1 peptide/HLA-A*02:01 complex (recombinant) (human)
# Test: SPR
row,binding result,Binder
1,no binding (tested: all below 3.5 RU),B11
2,no binding (tested: all below 3.5 RU),B12
3,no binding (tested: all below 3.5 RU),B13

# Biological target: RP1 peptide/HLA-A*02:01 complex (recombinant) (human, UniProt P16213 21-119 (Pongo pygmaeus entry))
# Test: SPR
row,binding result,Binder
1,no binding (tested: all below 3.5 RU),B11
2,no binding (tested: all below 3.5 RU),B12
3,no binding (tested: all below 3.5 RU),B13

# Biological target: BRCA2 peptide/HLA-A*02:01 complex (recombinant) (human)
# Test: SPR
row,binding result,Binder
1,no binding (tested: all below 3.5 RU),B11
2,no binding (tested: all below 3.5 RU),B12
3,no binding (tested: all below 3.5 RU),B13

# Biological target: PTP4A1 peptide/HLA-A*02:01 complex (recombinant) (human)
# Test: SPR
row,binding result,Binder
1,no binding (tested: all below 3.5 RU),B11
2,no binding (tested: all below 3.5 RU),B13

# Biological target: NR2E1 peptide/HLA-A*02:01 complex (recombinant) (human)
# Test: SPR
row,binding result,Binder
1,no binding (tested: all below 3.5 RU),B11
2,no binding (tested: all below 3.5 RU),B12
3,no binding (tested: all below 3.5 RU),B13

# Biological target: CDC14A peptide/HLA-A*02:01 complex (recombinant) (human)
# Test: SPR
row,binding result,Binder
1,no binding (tested: all below 3.5 RU),B11
2,no binding (tested: all below 3.5 RU),B12
3,no binding (tested: all below 3.5 RU),B13

# Biological target: ZNF566 peptide/HLA-A*02:01 complex (recombinant) (human)
# Test: SPR
row,binding result,Binder
1,no binding (tested: all below 3.5 RU),B11
2,no binding (tested: all below 3.5 RU),B12
3,no binding (tested: all below 3.5 RU),B13

# Biological target: RCL1 peptide/HLA-A*02:01 complex (recombinant) (human, UniProt P16213 21-119 (Pongo pygmaeus entry))
# Test: SPR
row,binding result,Binder
1,no binding (tested: all below 3.5 RU),B11
2,no binding (tested: all below 3.5 RU),B12
3,no binding (tested: all below 3.5 RU),B13

# Biological target: OR51B6 peptide/HLA-A*02:01 complex (recombinant) (human)
# Test: SPR
row,binding result,Binder
1,no binding (tested: all below 3.5 RU),B11
2,no binding (tested: all below 3.5 RU),B12
3,no binding (tested: all below 3.5 RU),B13

# Biological target: T2, AFP158/HLA-A*02:01 complex (human)
# T2 construct: biotinylated on the BSP by BirA for ELISA and panning; also called biotinylated AFP158/HLA-A*02:01 complex; Bio-AFP158
# Test: SPR; vs AS170036 VL1VH1
row,Affinity increase [fold],Binder
1,> 2,B11
2,> 2,B12
3,> 2,B13
